Source: patent publication US20230357447A1 (JANUX THERAPEUTICS, published 2023)

B1: Phage-311 clonal phage peptide (peptide)
peptide: MDWCPRDLWYQCFN
notes: on phage (pIII fusion)
B2: Phage-423 (peptide)
peptide: INLCPTPMWNRCWL
notes: Clonal phage from the Peptide-9 library
B3: Phage-438 (peptide)
peptide: MDWCPMSRWAFCFD
notes: as for B2
B4: Phage-436 (peptide)
peptide: MDWCPRDRWADCFN
notes: as for B2
B5: Phage-440 (peptide)
peptide: MDWCPRDRWVDCFN
notes: as for B2
B6: Phage-437 (peptide)
peptide: MDWCPVDRWADCFN
notes: as for B2
B7: Phage-446 (peptide)
peptide: MDWCPRDRWDDCFN
notes: as for B2
B8: Phage-441 (peptide)
peptide: MDWCPRDRWDDCFF
notes: as for B2
B9: Phage-321 clonal phage peptide (peptide)
peptide: MDWCPRDLWYVCFA
notes: on phage (pIII fusion)
B10: Phage-432 (peptide)
peptide: IDWCPIIQGLPCFA
notes: as for B2
B11: Phage-308 clonal phage peptide (peptide)
peptide: MDWCPKSLWAECFN
notes: on phage (pIII fusion)
B12: Phage-292 clonal phage peptide (peptide)
peptide: MDWCPRALWDHCFF
notes: on phage (pIII fusion)
B13: Phage-288 clonal phage peptide (peptide)
peptide: MDWCPIALWDFCFA
notes: on phage (pIII fusion)
B14: Phage-434 (peptide)
peptide: IVWCPTTQWNRCAT
notes: as for B2
B15: Phage-310 clonal phage peptide (peptide)
peptide: MDWCPRDLWDECFN
notes: on phage (pIII fusion)
B16: Phage-443 (peptide)
peptide: MDWCPMTRWNDCYF
notes: as for B2
B17: Phage-447 (peptide)
peptide: MDWCPRDRWDVCYY
notes: as for B2
B18: Phage-425 (peptide)
peptide: MDLCPTAMWNRCFY
notes: as for B2
B19: Phage-424 (peptide)
peptide: ITQCPSTMWNRCSV
notes: as for B2
B20: Phage-442 (peptide)
peptide: IYWCPIDRWNDCYN
notes: as for B2
B21: Phage-449 (peptide)
peptide: MVDCPLISFDECLA
notes: as for B2
B22: Phage-317 clonal phage peptide (peptide)
peptide: MDWCPRHLWHECFT
notes: on phage (pIII fusion)
B23: Phage-290 clonal phage peptide (peptide)
peptide: MDWCPRDLWSVCFS
notes: on phage (pIII fusion)
B24: Phage-439 (peptide)
peptide: MDWCPRDRWDVCFA
notes: as for B2
B25: Phage-426 (peptide)
peptide: MFLCPSAMWNRCFY
notes: as for B2
B26: Phage-445 (peptide)
peptide: MDWCPRARWHDCFF
notes: as for B2
B27: Phage-428 (peptide)
peptide: MNWCPSTMWNRCLT
notes: as for B2
B28: Phage-315 clonal phage peptide (peptide)
peptide: MDWCPTYLWHVCFS
notes: on phage (pIII fusion)
B29: Phage-427 (peptide)
peptide: VILCPTTMWNRCFH
notes: as for B2
B30: Phage-307 clonal phage peptide (peptide)
peptide: MDWCPRYLWPVCFH
notes: on phage (pIII fusion)
B31: Phage-319 clonal phage peptide (peptide)
peptide: MSWCPRDLWHLCFF
notes: on phage (pIII fusion)
B32: Phage-304 clonal phage peptide (peptide)
peptide: MDWCPKFLWDECFA
notes: on phage (pIII fusion)
B33: Phage-450 (peptide)
peptide: EDWCPTDVWPYCFS
notes: as for B2
B34: Phage-433 (peptide)
peptide: MAWCPWAQFDECLA
notes: as for B2
B35: Phage-448 (peptide)
peptide: MAWCPWASFDECLA
notes: as for B2
B36: Phage-435 (peptide)
peptide: MDWCPRDRWVDCYA
notes: as for B2
B37: Phage-430 (peptide)
peptide: IHLCHWVPWIKCSH
notes: as for B2
B38: Phage-431 (peptide)
peptide: MAWCPADQWHECFN
notes: as for B2
B39: Phage-320 clonal phage peptide (peptide)
peptide: MDWCPTYLWNECFN
notes: on phage (pIII fusion)

Columns and labels:
[1] = biological target: T1, anti-CD28 scFv (VH-linker 1-VL) (biotinylated (site not stated)); experiment: phage ELISA; biotinylated scFv on neutravidin plate; anti-M13-HRP;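 note: crude clonal phage supernatant added to wells pre-incubated with soluble CD28 protein or only blocking buffer, then washed, bound phage read out with an HRP-linked anti-M13 antibody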
T1 construct: Captured as biotinylated scFv on neutravidin coated plates in the phage ELISA

[2] = biological target: T1, anti-CD28 scFv (VH-linker 1-VL); experiment: phage ELISA; scFv wells pre-incubated with soluble CD28 (competitor);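 note: crude clonal phage supernatants added to wells pretreated with soluble CD28 in blocking buffer, bound phage read via HRP-linked anti-M13 antibody, reference wells got blocking buffer only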
[3] = biological target: Anti-CD28 scFv (VH-linker 1-VL); experiment: phage ELISA: biotinylated anti-CD28 scFv on neutravidin plate, clonal phage supernatant, anti-M13-HRP;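 note: before phage addition, wells were preincubated either with soluble CD28 protein in blocking buffer or with blocking buffer only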
Description: (§1) Clonal phage were harvested as crude supernatants and screened via standard enzyme linked immunosorbent assays (ELISAs). […] Prior to the addition of clonal phage, wells were incubated with blocking buffer and CD28 soluble protein or blocking buffer alone. Without washing or aspirating, clonal phage supernatants were then added to the wells and incubated for a short time. Wells were then washed followed by detection of bound phage using a horse radish peroxidase conjugated anti-M13 antibody.

[4] = biological target: Anti-CD28 scFv (VH-linker 1-VL); experiment: phage ELISA: biotinylated anti-CD28 scFv on neutravidin plate, clonal phage supernatant, anti-M13-HRP; wells pre-incubated with soluble CD28 (competitor);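 for Phage binding ELISA CD28 scFv signal in presence of CD28: wells pretreated with soluble CD28 protein in blocking buffer before phage addition, no wash in between, reference wells got blocking buffer only, bound phage detected after washing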
Description: as §1

T1 sequence (scFv, as listed by the source): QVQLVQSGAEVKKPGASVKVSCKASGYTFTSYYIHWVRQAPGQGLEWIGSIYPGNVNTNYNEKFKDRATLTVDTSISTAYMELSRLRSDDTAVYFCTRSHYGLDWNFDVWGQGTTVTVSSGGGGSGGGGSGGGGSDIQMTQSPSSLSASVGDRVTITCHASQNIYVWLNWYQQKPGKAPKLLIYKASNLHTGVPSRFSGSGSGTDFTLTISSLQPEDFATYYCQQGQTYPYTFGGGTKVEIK
Chain of Anti-CD28 scFv (VH-linker 1-VL) (scFv, as listed by the source): as above

Row | Binder | CD28 scFv signal [1] | CD28 scFv signal in presence of CD28 [2] | Phage binding ELISA CD28 scFv signal [3] | Phage binding ELISA CD28 scFv signal in presence of CD28 [4]
1 | B1 | 2.35 | 0.609 |  | 
2 | B2 |  |  | 0.103 | 0.101
3 | B3 |  |  | 1 | 0.115
4 | B4 |  |  | 1.35 | 0.08
5 | B5 |  |  | 0.911 | 0.132
6 | B6 |  |  | 1.16 | 0.315
7 | B7 |  |  | 0.45 | 0.077
8 | B8 |  |  | 0.899 | 0.183
9 | B9 | 2.22 | 0.138 |  | 
10 | B10 |  |  | 0.368 | 0.065
11 | B11 | 2.38 | 0.162 |  | 
12 | B12 | 2.49 | 0.394 |  | 
13 | B13 | 2.52 | 0.492 |  | 
14 | B14 |  |  | 0.067 | 0.083
15 | B15 | 2.37 | 0.248 |  | 
16 | B16 |  |  | 0.671 | 0.078
17 | B17 |  |  | 0.074 | 0.073
18 | B18 |  |  | 0.097 | 0.084
19 | B19 |  |  | 0.098 | 0.108
20 | B20 |  |  | 0.867 | 0.164

Row | Binder | CD28 scFv signal [1] | CD28 scFv signal in presence of CD28 [2] | Phage binding ELISA CD28 scFv signal [3] | Phage binding ELISA CD28 scFv signal in presence of CD28 [4]
21 | B21 |  |  | 0.07 | 0.076
22 | B22 | 2.3 | 0.32 |  | 
23 | B23 | 2.5 | 0.116 |  | 
24 | B24 |  |  | 0.924 | 0.096
25 | B25 |  |  | 0.094 | 0.114
26 | B26 |  |  | 0.497 | 0.138
27 | B27 |  |  | 0.065 | 0.07
28 | B28 | 2.32 | 0.16 |  | 
29 | B29 |  |  | 0.072 | 0.084
30 | B30 | 2.39 | 0.602 |  | 
31 | B31 | 2.27 | 0.319 |  | 
32 | B32 | 2.41 | 0.376 |  | 
33 | B33 |  |  | 0.711 | 0.157
34 | B34 |  |  | 0.071 | 0.078
35 | B35 |  |  | 0.089 | 0.109
36 | B36 |  |  | 1.48 | 0.403
37 | B37 |  |  |  | 2.51
38 | B38 |  |  | 1.84 | 0.456
39 | B39 | 2.24 | 0.606 |  | 
